From paper PMC8948278 (2022)

Target: Recombinant SARS-CoV-2 S trimer protein (ACRO Biosystems SPN-C52H9) (SARS-CoV-2, UniProt P0DTC2)
Assay: SPR

B1: KIH format bivalent MW01 (MW01/KIH) (antibody, V domains shown)
VH: EVQLVQSGAEVKKPGSSVKVSCKASGGTFSSFSISWVRQAPGQGLEWMGRIIPVLGIANYAQEVQGRVTITADKSTSTAYMELSSLRSEDTAVYFCTTDRFVEPATGPFFDYWGQGTLVTVSS
VL: EIVMTQSPATLSVSPGERATLSCRASQSVSSNLAWYQQKPGQAPRLLIYGASTRATGIPARFSGSGSGTEFTLTISSLQSEDFAVYYCQQYSNWLTFGGGTKVEIK
Work on B1 yielded a koff of 0.000408 s⁻¹.
